From US20260365734 (published 2026)
Numbering of substitutions follows the chain as printed.

Columns and labels:
human VEGFA = target: T1, human VEGFA (human, UniProt P15692); assay: BLI
T1 chain: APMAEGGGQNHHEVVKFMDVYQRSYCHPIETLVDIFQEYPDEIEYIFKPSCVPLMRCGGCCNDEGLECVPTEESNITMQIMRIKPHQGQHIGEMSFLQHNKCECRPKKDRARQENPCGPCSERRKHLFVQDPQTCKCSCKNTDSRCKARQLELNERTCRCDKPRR

[1] = target: T2, human PD-L1 (cell surface) (human, UniProt Q9NZQ7); assay: FACS, NCI-H441 cells
[2] = target: T2, human PD-L1 (cell surface); assay: FACS, CHO-h-PD-L1 cells
human PD-L1 ECD = human PD-L1 ECD (human, UniProt Q9NZQ7); assay: BLI
[3] = target: T2, human PD-L1 (cell surface); assay: FACS, T24 cells
cynomolgus PD-L1 = cynomolgus PD-L1 (cynomolgus); assay: BLI
[4] = target: T2, human PD-L1 (cell surface); assay: FACS, T24 cells; remark: listed apart in the source
[5] = target: T2, human PD-L1 (cell surface); assay: FACS
[6] = target: T3, mouse PD-L1 (cell surface) (mouse, UniProt Q9EP73); assay: FACS, 293T m-PD-L1 cells
[7] = target: T3, mouse PD-L1 (cell surface); assay: FACS, Hepa1-6 cells
[8] = target: T2, human PD-L1 (cell surface); assay: FACS; remark: listed apart in the source

T3 sequence (Q9EP73 19-238): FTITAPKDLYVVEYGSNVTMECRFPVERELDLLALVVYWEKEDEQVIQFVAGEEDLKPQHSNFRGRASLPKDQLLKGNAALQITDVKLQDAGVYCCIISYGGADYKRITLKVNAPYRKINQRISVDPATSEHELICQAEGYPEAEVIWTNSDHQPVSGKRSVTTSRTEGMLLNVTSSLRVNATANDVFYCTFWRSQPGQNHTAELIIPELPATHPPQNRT
Sequence of human PD-L1 ECD (Q9NZQ7 19-238): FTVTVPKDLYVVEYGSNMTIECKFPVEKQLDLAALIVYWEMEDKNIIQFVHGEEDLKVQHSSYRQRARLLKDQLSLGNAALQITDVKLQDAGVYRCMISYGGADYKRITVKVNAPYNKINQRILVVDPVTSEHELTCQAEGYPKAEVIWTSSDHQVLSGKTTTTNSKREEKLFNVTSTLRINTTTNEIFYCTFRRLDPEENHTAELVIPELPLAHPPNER
T2 sequence (Q9NZQ7 19-238): as above
Sequence of cynomolgus PD-L1 (cynomolgus) (chain, as listed by the source): as the sequence (Q9NZQ7 19-238) above, with A33T, A34S, S62N, R68Q, Q82R, F173L, T185A, T192I, H215L counted along it

B1: 1G1 (antibody, V domains shown)
VH: QVQLVESGGGVVQPGRSLRLSCAASGLSFSYGTMAWVRQAPGKELELVAALSAGGTITYYADSVKGRFTISRDNSKNTLYLQMNSLRAEDTAVYYCAALGGYSGGSKYPYYDYWGQGTLVTVSS
Human VEGFA
  Kd: 14.4 nM

B2: 1C8 (antibody, V domains shown)
VH: QVQLVESGGGVVQPGRSLRLSCAASGRSFSRYAMAWVRQAPGKERESVAVIGSGGGRTYYADSVKGRFTISRDNSKNTLYLQMNSLRAEDTAVYYCAARIYRVVGSGTYPAGYDYWGQGTLVTVSS
Human VEGFA
  Kd: 2.61 nM

B3: 4D2-hv1-NT (antibody, V domains shown)
VH: QVQLVESGGGLVKPGGSLRLSCAASGFSASDVVMAWYRQAPGKQREFVANLGASSTTRYADSVKGRFTISRDNAKNSLYLQMNSLRAEDTAVYYCNALVWTGSSYNNWGQGTQVTVSS
[1]
  EC50: 0.065 nM
[2]
  EC50: 0.143 nM
Human PD-L1 ECD
  Kd: 4.54 nM
[3]
  EC50: 0.043 nM
Cynomolgus PD-L1
  Kd: 3.76 nM

B4: 4E2-hv1-NT (antibody, V domains shown)
VH: B3 VH with Q1E, S30G, L51I, G52A
[1]
  EC50: 0.039 nM
[2]
  EC50: 0.11 nM
Human PD-L1 ECD
  Kd: 4.64 nM
[3]
  EC50: 0.048 nM
Cynomolgus PD-L1
  Kd: 3.4 nM

B5: 4E2-hv2-NT (antibody, V domains shown)
VH: B3 VH with Q1E, S30G, A49S, L51I, G52A
[1]
  EC50: 0.054 nM
[2]
  EC50: 0.11 nM
Human PD-L1 ECD
  Kd: 4.75 nM
[3]
  EC50: 0.047 nM
Cynomolgus PD-L1
  Kd: 3.24 nM

B6: 5C12-hv7-NT (antibody, V domains shown)
VH: B3 VH with A49S, L51I, G52A, S54R, S55G, T56S, R58D
Human PD-L1 ECD
  Kd: 8.12 nM
[3]
  EC50: 0.083 nM
Cynomolgus PD-L1
  Kd: 4.34 nM

B7: 4D2-hv4-NT (antibody, V domains shown)
VH: B3 VH with A49S, R58N
[1]
  EC50: 0.112 nM
[2]
  EC50: 0.171 nM

B8: R2-4D2 (antibody, V domains shown)
VH: B3 VH with K13Q, P14A, N73D, S77T, L78V, Y79S, R86K, A87S, T101N
[4]
  EC50: 0.041 nM
[5]
  EC50: 0.202 nM

B9: 4D2-Alpaca-NT (antibody, V domains shown)
VH: B3 VH with K13Q, P14A, N73D, S77T, L78V, Y79S, R86K, A87S
[1]
  EC50: 0.044 nM
[2]
  EC50: 0.103 nM

B10: 1F4-hv7-NT (antibody, V domains shown)
VH: B3 VH with L51I, G52A
[1]
  EC50: 0.056 nM
[2]
  EC50: 0.13 nM
Human PD-L1 ECD
  Kd: 6.39 nM
[3]
  EC50: 0.047 nM
Cynomolgus PD-L1
  Kd: 3.87 nM

B11: 4E2-hv3-NT (antibody, V domains shown)
VH: B3 VH with Q1E, S30G, A49S, L51I, G52A, R58Y
[1]
  EC50: 0.055 nM
[2]
  EC50: 0.167 nM

B12: 4D2-hv2-NT (antibody, V domains shown)
VH: B3 VH with A49S
[1]
  EC50: 0.099 nM
[2]
  EC50: 0.203 nM

B13: 4D2-hv3-NT (antibody, V domains shown)
VH: B3 VH with A49S, R58Y
[1]
  EC50: 0.271 nM
[2]
  EC50: 0.598 nM

B14: 4E2-Alpaca-NT (antibody, V domains shown)
VH: EVQLVESGGGSVQDGGSLTLSCAASGFSAGDVVMAWYRQAPGKQREFVANIAASSTTRYTDSVKGRFTISRDNAKNTVYLQMNSLKSEDTAVYYCNALVWTGSSYNNWGQGTQVTVSS
[1]
  EC50: 0.041 nM
[2]
  EC50: 0.109 nM

B15: R2-4E2 (antibody, V domains shown)
VH: B14 VH with T101N
[4]
  EC50: 0.05 nM
[5]
  EC50: 0.148 nM

B16: 7H3 (antibody, V domains shown)
VH: QVQLVESGGGVVQPGRSLRLSCAASGFTFGPYAMHWVRQAPGKERELVAAIWPSGSITYYADSVKGRFTISRDNSKNTLYLQMNSLRAEDTAVYYCAFGSPTGSITYWGQGTLVTVSS
Human VEGFA
  Kd: 2.08 nM

B17: R2-4H8 (antibody, V domains shown)
VH: EVQLVESGGGLVQPGGSLRLSCGASGIFFSGVHMGWYRQAPGKERELVALITDSGSADYVDSVKGRFTISRDNAKNTVYLQMNSLKFEDTAVYYCNARTTTIYWGQGTQVTVSS
[5]
  EC50: 0.87 nM

B18: R3-2A11 (antibody, V domains shown)
VH: QVQLVESGGDLVQPGGSLRLSCAASGIDFSDTHMGWYRQAPGKQRELVALITSGGFTDYPDSVKGRFTISRDNAKNTMYLQMNTLKLEDTAVYYCNARRTTIYWGQGTQVTVSS
[5]
  EC50: 1.16 nM

B19: R2-1G10 (antibody, V domains shown)
VH: B17 VH with E1Q, G23A, G31D, V32T, L50I, D53S, S54G, A57T, T99R
[5]
  EC50: 0.63 nM

B20: R2-6D2 (antibody, V domains shown)
VH: B18 VH with D10G, Q44E, P60A, L87F, R99K
[5]
  EC50: 0.93 nM

B21: R1-1C3 (antibody, V domains shown)
VH: B17 VH with E6Q, G23A, G31D, V32T, L50I, D53S, S54G, A57T, S84T, T99R
[5]
  EC50: 1.69 nM

B22: R2-1A3 (antibody, V domains shown)
VH: B18 VH with Q1E, D10G, A23V, I27F, G55A, P60A, M78V, L87F
[5]
  EC50: 0.88 nM

B23: R2-1G4 (antibody, V domains shown)
VH: B18 VH with D10G, Q44E, P60A, L87F
[5]
  EC50: 0.42 nM

B24: R2-6A10 (antibody, V domains shown)
VH: B18 VH with D10G, Q44E, P60A, L87F, T100S
[5]
  EC50: 0.54 nM

B25: R2-3A5 (antibody, V domains shown)
VH: B18 VH with Q1E, D10G, P60A
[5]
  EC50: 0.6 nM

B26: 3H1-hv7 (antibody, V domains shown)
VH: QVQLVESGGGVVQPGGSLRLSCAASGIDFSDTHMHWVRQAPGKQRELVAIITSGGSTDYVDSVKGRFTISRDNSKNTLYLQMNSLRAEDTAVYYCNARRSTIYWGQGTQVTVSS
[6]
  EC50: 0.56 nM
[7]
  EC50: 6.78 nM

B27: 5F8-4B12 (antibody, V domains shown)
VH: B26 VH with Q1E, V11L, I27F, S30P, H35S, Q44E, S56F, N96R, S100T
[8]
  EC50: 0.63 nM

B28: 3H1-3B9 (antibody, V domains shown)
VH: B26 VH with S56F, R99T
[6]
  EC50: 0.97 nM
[7]
  EC50: 0.3 nM

B29: 3H1-2F4 (antibody, V domains shown)
VH: B26 VH with T32L, R99S
[6]
  EC50: 1 nM
[7]
  EC50: 0.65 nM

B30: 5F8-3A3 (antibody, V domains shown)
VH: B26 VH with Q1E, V11L, I27F, H35S, Q44E, S53G, N96L, S100T
[8]
  EC50: 0.73 nM

B31: 3H1-2G3 (antibody, V domains shown)
VH: B26 VH with G54S, Y103L
[6]
  EC50: 1.57 nM
[7]
  EC50: 0.31 nM

B32: 5F8-7D5 (antibody, V domains shown)
VH: B26 VH with Q1E, V11L, I27F, S30E, H35S, Q44E, G55C, S100A
[8]
  EC50: 0.51 nM

B33: 3H1-2A2 (antibody, V domains shown)
VH: B26 VH with S56F
[6]
  EC50: 1.42 nM
[7]
  EC50: 0.31 nM

B34: 5F8-6D6 (antibody, V domains shown)
VH: B26 VH with Q1E, V11L, I27F, H33A, H35S, Q44E, T57V, N96R, S100T
[8]
  EC50: 0.52 nM

B35: 3H1-6D2 (antibody, V domains shown)
VH: B26 VH with S30N, G54R, I102L
[6]
  EC50: 1.29 nM
[7]
  EC50: 0.51 nM

B36: 5F8-8H3 (antibody, V domains shown)
VH: B26 VH with Q1E, V11L, I27F, D31M, H35S, Q44E, S56K, S100A
[8]
  EC50: 0.51 nM

B37: 3H1-1G9 (antibody, V domains shown)
VH: B26 VH with S30D, S56L, R99T
[6]
  EC50: 1.01 nM
[7]
  EC50: 0.55 nM

B38: 5F8-8E3 (antibody, V domains shown)
VH: B26 VH with Q1E, V11L, I27F, H35S, Q44E, R99L, S100T
[8]
  EC50: 0.57 nM

B39: 5F8-8D4 (antibody, V domains shown)
VH: B26 VH with Q1E, V11L, I27F, H33F, H35S, Q44E, S100T
[8]
  EC50: 0.49 nM

B40: 4B11 (antibody, V domains shown)
VH: QVQLVESGGGVVQPGRSLRLSCAASGLSFSQYEMHWVRQAPGKEREFVAAISSSGISTYYADSVKGRFTISRDNSKNTLYLQMNSLRAEDTAVYYCAAELVDYHRWGYDYWGQGTLVTVSS
Human VEGFA
  Kd: 2.82 nM
